Reference: article PMC5840397

What was measured:
[1] = molecular target: LOX-1 (Homo sapiens) (UniProt P78380); conditions: cited from earlier work
[2] = molecular target: C-terminally His-tagged human ECRG4(32–148) (human) (UniProt Q9H1Z8); assay: SPR; ProteOn XPR36, GLM chip; His-tagged ECRG4 peptides captured by immobilised anti-His antibody; 2 × CTLD–Fc injected at 15.6–250 nM, 60 s association, 120 s dissociation; HBS (10 mM HEPES pH 7.4, 150 mM NaCl, 3 mM EDTA, 0.05% P20); Langmuir model
[3] = molecular target: C-terminally His-tagged human ECRG4(71–132) (human) (UniProt Q9H1Z8); assay: as above
Sequence of C-terminally His-tagged human ECRG4(71–132) (human) (Q9H1Z8 71-132): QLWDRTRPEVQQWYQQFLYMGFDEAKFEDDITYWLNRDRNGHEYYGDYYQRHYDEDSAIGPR

[4] = molecular target: C-terminally His-tagged human ECRG4(71–148) (human) (UniProt Q9H1Z8); assay: as above
Sequence of C-terminally His-tagged human ECRG4(71–148) (human) (Q9H1Z8 71-148): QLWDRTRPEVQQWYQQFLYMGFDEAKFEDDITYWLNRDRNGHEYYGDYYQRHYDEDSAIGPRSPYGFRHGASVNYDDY

Sequence of CRP (P02741 19-224): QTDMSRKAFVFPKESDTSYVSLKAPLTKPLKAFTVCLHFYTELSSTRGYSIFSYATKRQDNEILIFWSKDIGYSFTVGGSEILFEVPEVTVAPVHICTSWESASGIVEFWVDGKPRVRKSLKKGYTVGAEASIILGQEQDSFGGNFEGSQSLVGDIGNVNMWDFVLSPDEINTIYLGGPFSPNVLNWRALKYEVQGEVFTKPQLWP
Sequence of C-terminally His-tagged human ECRG4(32–148) (human) (Q9H1Z8 32-148): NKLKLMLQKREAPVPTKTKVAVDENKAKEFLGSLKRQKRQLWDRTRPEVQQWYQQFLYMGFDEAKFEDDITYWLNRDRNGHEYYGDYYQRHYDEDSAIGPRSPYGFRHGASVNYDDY

| Kd [2] [nM] | Kd [3] [nM] | Kd [4] [nM] | Substance | Kd [1] [nM] |
| --- | --- | --- | --- | --- |
|  |  |  | CRP (from UniProt P02741) | 160 |
| 10 | 10 | 10 | 2 × CTLD–Fc (two human LOX-1 CTLDs in tandem, Fc-fused) (Fc fusion) |  |
